According to publication PMC3870051 (Heart rhythm : the official journal of the Heart Rhythm …, 2013):

Molecular target: NaV1.5 C-terminal domain (CTD), purified recombinant (UniProt Q14524 1773-1940)
Assay: ITC

Chain of NaV1.5 C-terminal domain (CTD), purified recombinant (Q14524 1773-1940): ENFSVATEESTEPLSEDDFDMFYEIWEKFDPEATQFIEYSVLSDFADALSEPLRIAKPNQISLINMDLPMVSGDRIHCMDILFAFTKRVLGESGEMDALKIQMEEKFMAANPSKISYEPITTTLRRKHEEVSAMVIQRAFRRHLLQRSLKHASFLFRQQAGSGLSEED

B1: Q7R-FGF12 (human FGF12-B with Q7R), purified recombinant (natural protein, UniProt P61328-2 1-181, looked up)
chain: MESKEPRLKGIVTRLFSQQGYFLQMHPDGTIDGTKDENSDYTLFNLIPVGLRVVAIQGVKASLYVAMNGEGYLYSSDVFTPECKFKESVFENYYVIYSSTLYRQQESGRAWFLGLNKEGQIMKGNRVKKTKPSSHFVPKPIEVCMYREPSLHEIGEKQGRSRKSSGTPTMNGGKVVNQDST
- fold reduction in binding affinity against WT-FGF12: 2 fold
